PMC9463443

Molecular target: CCANdeltaCT (CENP-LN, CENP-HIKM, CENP-OPQUR; no CENP-C, no CENP-TWSX) (Homo sapiens, UniProt Q8N0S6;Q96H22;Q9H3R5;Q92674;Q9BS16;Q9NSP4;Q9BU64;Q6IPU0;Q7L2Z9;Q71F23;Q13352 …)
Experiment: EMSA; 300 mM NaCl; EMSA: 20 mM HEPES-Na pH 7.5, 300 mM NaCl, 0.5 mM TCEP, 10 min on ice, 1% agarose in 0.5x TAE; SEC: Superose 6 (analytical SEC buffer not given in the material)
Details: protein: recombinant; tags: His6 C-term on CENP-N and CENP-Q; copies: 1;1;1;1;1;1;1;1;1;1;1; blunt

B1: 147 bp DNA (Widom 601) (dsDNA)
DNA 1: ATCGAGAATCCCGGTGCCGAGGCCGCTCAATTGGTCGTAGACAGCTCTAGCACCGCTTAAACGCACGTACGCGCTGTCCCCCGCGTTTTAACCGCCAAGGGGATTACTCCCTAGTCTCCAGGCACGTGTCACATATATACATCCGAT
DNA 2: ATCGGATGTATATATGTGACACGTGCCTGGAGACTAGGGAGTAATCCCCTTGGCGGTTAAAACGCGGGGGACAGCGCGTACGTGCGTTTAAGCGGTGCTAGAGCTGTCTACGACCAATTGAGCGGCCTCGGCACCGGGATTCTCGAT
B1: binds.
